According to patent publication US20240261333A1, “NOVEL TARGETS FOR ENHANCING ANTI-TUMOR IMMUNITY” (THE BROAD INSTITUTE, INC., priority 2021, published 2024):

Experiments:
HSP90AB1 (human) = HSP90AB1 (human) (UniProt P08238); assay: anti-FLAG co-IP from lysate of C-FLAG B3GNT2 cells, mass spectrometry
NTPCR (human) = NTPCR (human) (UniProt Q9BSD7); assay: as above
TUBA1C (human) = TUBA1C (human) (UniProt Q9BQE3); assay: as above
ELOC (human) = ELOC (human) (UniProt Q15369); assay: as above
RCN1 (human) = RCN1 (human) (UniProt Q15293); assay: as above
PDIA4 (human) = PDIA4 (human) (UniProt P13667); assay: as above
DNAJA3 (human) = DNAJA3 (human) (UniProt Q96EY1); assay: as above
Sequence of DNAJA3 (human) (Q96EY1 other isoform, or with tags, fused parts or gaps limits assumed): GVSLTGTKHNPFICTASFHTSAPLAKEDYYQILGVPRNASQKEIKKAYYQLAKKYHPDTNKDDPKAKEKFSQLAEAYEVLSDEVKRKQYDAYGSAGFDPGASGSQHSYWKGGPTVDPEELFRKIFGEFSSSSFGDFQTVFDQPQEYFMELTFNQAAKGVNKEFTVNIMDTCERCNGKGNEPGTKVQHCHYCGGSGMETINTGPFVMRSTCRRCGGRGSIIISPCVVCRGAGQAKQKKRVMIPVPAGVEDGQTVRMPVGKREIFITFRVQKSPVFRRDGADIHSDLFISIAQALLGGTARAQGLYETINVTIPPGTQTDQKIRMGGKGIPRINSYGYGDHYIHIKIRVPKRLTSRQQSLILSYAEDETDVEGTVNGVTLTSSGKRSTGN

AIFM1 (human) = AIFM1 (human) (UniProt O95831); assay: as above
H1FX (human) = H1FX (human) (UniProt Q92522); assay: as above
SLC25A22 (human) = SLC25A22 (human) (UniProt Q9H936); assay: as above
TECR (human) = TECR (human) (UniProt Q9NZ01); assay: as above
RRBP1 (human) = RRBP1 (human) (UniProt Q9P2E9); assay: as above
Sequence of RRBP1 (human) (Q9P2E9 whole entry): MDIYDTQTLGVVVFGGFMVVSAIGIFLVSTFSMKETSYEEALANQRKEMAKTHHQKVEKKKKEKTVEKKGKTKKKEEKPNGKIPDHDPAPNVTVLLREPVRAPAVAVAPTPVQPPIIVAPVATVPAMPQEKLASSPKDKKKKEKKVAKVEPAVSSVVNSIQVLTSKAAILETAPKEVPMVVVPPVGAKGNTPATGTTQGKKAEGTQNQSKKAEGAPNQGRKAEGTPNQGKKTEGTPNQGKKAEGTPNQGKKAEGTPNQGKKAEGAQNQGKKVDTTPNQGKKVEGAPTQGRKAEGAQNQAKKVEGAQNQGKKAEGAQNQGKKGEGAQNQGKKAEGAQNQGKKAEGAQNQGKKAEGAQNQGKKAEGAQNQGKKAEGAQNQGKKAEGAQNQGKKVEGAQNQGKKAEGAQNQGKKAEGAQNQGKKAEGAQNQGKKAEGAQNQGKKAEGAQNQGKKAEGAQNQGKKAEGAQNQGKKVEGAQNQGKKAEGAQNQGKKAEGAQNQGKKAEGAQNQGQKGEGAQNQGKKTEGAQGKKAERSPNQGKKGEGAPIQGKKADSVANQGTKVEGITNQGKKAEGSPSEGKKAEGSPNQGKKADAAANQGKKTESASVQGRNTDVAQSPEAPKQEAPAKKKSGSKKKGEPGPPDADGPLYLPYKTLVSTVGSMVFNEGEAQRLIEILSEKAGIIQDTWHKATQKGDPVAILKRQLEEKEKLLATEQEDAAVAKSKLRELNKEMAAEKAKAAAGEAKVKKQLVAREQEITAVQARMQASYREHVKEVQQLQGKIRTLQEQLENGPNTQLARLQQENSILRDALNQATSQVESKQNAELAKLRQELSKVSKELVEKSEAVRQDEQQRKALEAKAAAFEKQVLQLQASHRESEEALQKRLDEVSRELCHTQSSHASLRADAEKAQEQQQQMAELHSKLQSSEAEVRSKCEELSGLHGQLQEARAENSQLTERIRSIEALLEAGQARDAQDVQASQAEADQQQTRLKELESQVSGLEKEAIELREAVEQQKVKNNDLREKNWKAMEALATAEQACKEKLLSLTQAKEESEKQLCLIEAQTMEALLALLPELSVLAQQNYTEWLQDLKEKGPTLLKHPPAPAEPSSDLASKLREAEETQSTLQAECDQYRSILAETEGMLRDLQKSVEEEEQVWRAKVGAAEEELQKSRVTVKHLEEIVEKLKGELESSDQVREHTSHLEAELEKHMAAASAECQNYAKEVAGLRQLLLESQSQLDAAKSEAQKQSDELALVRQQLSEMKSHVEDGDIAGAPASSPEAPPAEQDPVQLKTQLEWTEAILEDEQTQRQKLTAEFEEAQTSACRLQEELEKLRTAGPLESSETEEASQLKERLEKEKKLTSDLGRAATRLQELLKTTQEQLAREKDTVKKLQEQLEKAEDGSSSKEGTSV

SFXN3 (human) = SFXN3 (human) (UniProt Q9BWM7); assay: as above
RPL15 (human) = RPL15 (human) (UniProt P61313); assay: as above
PSMB6 (human) = PSMB6 (human) (UniProt P28072); assay: as above
HDGFL2 (human) = HDGFL2 (human) (UniProt Q7Z4V5); assay: as above
PXN (human) = PXN (human) (UniProt P49023); assay: as above
FBXO6 (human) = FBXO6 (human) (UniProt Q9NRD1); assay: as above
ACSL3 (human) = ACSL3 (human) (UniProt O95573); assay: as above
Sequence of ACSL3 (human) (O95573 whole entry): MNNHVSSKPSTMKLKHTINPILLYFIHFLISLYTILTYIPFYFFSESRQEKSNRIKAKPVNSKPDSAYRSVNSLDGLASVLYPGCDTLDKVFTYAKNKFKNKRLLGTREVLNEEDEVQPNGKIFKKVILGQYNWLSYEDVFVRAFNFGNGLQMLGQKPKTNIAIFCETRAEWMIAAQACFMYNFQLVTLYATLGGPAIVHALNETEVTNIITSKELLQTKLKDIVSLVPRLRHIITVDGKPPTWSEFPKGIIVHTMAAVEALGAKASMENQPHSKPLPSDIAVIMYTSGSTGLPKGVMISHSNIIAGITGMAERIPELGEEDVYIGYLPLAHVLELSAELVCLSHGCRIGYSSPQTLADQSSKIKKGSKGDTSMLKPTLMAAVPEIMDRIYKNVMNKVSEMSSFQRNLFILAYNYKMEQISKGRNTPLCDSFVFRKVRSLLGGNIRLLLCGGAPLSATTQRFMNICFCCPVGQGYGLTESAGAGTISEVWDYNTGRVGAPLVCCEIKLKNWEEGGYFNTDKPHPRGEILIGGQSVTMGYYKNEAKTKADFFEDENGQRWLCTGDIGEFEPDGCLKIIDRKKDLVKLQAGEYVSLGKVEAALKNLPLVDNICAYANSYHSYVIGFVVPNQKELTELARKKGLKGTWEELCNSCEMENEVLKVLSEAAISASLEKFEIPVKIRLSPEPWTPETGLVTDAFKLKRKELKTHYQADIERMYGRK

LARP4 (human) = LARP4 (human) (UniProt Q71RC2); assay: as above
RPL34 (human) = RPL34 (human) (UniProt P49207); assay: as above
RPS6 (human) = RPS6 (human) (UniProt P62753); assay: as above
KPNB1 (human) = KPNB1 (human) (UniProt Q14974); assay: as above
IPO7 (human) = IPO7 (human) (UniProt O95373); assay: as above
ZRANB2 (human) = ZRANB2 (human) (UniProt O95218); assay: as above
IFI16 (human) = IFI16 (human) (UniProt Q16666); assay: as above
ERP44 (human) = ERP44 (human) (UniProt Q9BS26); assay: as above
UBTF (human) = UBTF (human) (UniProt P17480); assay: as above
ABCD1 (human) = ABCD1 (human) (UniProt P33897); assay: as above
Sequence of ABCD1 (human) (P33897 whole entry): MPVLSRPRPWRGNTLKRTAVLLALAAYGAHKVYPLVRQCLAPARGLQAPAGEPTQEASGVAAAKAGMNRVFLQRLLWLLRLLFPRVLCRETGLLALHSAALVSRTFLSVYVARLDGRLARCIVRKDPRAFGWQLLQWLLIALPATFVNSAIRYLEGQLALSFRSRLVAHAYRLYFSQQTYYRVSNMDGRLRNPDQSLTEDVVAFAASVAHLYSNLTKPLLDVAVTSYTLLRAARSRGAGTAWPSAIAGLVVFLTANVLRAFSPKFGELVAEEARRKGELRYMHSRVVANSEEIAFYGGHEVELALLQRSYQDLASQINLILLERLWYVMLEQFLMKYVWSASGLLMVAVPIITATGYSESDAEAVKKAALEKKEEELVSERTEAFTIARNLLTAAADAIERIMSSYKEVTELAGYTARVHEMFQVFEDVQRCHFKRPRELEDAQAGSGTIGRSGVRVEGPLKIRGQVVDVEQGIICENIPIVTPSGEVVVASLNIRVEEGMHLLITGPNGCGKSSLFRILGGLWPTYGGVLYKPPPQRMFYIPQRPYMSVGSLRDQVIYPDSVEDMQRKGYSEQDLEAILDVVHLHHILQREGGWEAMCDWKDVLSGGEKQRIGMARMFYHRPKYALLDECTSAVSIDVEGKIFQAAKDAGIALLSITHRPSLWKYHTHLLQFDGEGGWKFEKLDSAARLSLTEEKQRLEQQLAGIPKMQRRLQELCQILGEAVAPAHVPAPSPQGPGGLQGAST

LDHA (human) = LDHA (human) (UniProt P00338); assay: as above
EEF2 (human) = EEF2 (human) (UniProt P13639); assay: as above
KTN1 (human) = KTN1 (human) (UniProt Q86UP2); assay: as above
Sequence of KTN1 (human) (Q86UP2 whole entry): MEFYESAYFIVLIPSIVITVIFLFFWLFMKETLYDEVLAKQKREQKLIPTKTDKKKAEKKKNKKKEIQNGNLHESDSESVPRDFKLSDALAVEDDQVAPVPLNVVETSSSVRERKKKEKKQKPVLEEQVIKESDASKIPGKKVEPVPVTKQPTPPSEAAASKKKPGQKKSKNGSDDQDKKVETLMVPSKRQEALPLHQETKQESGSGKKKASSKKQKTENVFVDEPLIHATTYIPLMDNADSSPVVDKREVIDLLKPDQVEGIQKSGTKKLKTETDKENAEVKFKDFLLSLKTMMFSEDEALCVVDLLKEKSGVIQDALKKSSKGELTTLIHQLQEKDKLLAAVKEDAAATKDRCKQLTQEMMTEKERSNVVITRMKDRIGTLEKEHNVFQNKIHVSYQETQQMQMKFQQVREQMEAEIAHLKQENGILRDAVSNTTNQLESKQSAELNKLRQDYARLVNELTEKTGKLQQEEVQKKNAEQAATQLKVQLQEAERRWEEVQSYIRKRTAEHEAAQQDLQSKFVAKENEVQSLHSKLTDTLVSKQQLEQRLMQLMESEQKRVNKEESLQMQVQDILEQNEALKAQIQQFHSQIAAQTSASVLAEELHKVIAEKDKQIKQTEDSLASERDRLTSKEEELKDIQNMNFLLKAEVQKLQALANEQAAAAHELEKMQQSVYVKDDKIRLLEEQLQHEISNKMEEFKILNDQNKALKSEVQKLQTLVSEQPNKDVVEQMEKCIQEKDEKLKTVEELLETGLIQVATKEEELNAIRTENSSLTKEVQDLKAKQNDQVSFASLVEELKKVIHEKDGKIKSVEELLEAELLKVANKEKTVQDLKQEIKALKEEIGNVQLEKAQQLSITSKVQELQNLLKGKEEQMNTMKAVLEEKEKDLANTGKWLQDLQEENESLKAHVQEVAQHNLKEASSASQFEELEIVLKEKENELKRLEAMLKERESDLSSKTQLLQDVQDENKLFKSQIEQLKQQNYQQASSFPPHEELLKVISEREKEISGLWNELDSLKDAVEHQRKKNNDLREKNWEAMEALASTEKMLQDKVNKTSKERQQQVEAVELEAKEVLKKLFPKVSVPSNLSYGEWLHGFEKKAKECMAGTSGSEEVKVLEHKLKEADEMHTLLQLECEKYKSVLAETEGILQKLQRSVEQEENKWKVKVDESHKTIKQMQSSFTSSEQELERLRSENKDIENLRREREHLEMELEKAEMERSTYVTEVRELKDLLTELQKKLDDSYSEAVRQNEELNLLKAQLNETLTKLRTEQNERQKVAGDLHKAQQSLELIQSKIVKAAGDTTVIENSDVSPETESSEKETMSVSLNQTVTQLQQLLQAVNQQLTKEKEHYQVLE

TRAFD1 (human) = TRAFD1 (human) (UniProt O14545); assay: as above
DNAJA1 (human) = DNAJA1 (human) (UniProt P31689); assay: co-IP/MS, anti-FLAG IP of N-FLAG B3GNT2 cell lysate
PCBP1 (human) = PCBP1 (human) (UniProt Q15365); assay: as above
SLC25A4 (human) = SLC25A4 (human) (UniProt P12235); assay: as above
GCN1 (human) = GCN1 (human) (UniProt Q92616); assay: as above
ERLIN1 (human) = ERLIN1 (human) (UniProt O75477); assay: as above
Sequence of ERLIN1 (human) (O75477 whole entry): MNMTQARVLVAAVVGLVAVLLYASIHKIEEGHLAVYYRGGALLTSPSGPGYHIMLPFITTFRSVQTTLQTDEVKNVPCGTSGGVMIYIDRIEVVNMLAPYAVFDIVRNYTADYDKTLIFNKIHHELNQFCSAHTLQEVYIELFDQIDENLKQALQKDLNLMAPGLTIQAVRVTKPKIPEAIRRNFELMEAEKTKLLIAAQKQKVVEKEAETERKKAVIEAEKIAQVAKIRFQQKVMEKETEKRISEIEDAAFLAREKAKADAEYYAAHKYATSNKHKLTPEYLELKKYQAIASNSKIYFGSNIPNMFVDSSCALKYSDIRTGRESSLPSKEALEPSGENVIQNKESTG

## C-terminal FLAG tagged B3GNT2 (from UniProt Q9NY97 1-397) (enzyme)
HSP90AB1 (human)
  co-IP mass spectrometry count: 11
NTPCR (human)
  co-IP mass spectrometry count: 2
TUBA1C (human)
  co-IP mass spectrometry count: 63
ELOC (human)
  co-IP mass spectrometry count: 2
RCN1 (human)
  co-IP mass spectrometry count: 9
PDIA4 (human)
  co-IP mass spectrometry count: 9
DNAJA3 (human)
  co-IP mass spectrometry count: 2
AIFM1 (human)
  co-IP mass spectrometry count: 5
H1FX (human)
  co-IP mass spectrometry count: 2
SLC25A22 (human)
  co-IP mass spectrometry count: 2
TECR (human)
  co-IP mass spectrometry count: 9
RRBP1 (human)
  co-IP mass spectrometry count: 16
SFXN3 (human)
  co-IP mass spectrometry count: 2
RPL15 (human)
  co-IP mass spectrometry count: 15
PSMB6 (human)
  co-IP mass spectrometry count: 3
HDGFL2 (human)
  co-IP mass spectrometry count: 2
PXN (human)
  co-IP mass spectrometry count: 0
FBXO6 (human)
  co-IP mass spectrometry count: 5
ACSL3 (human)
  co-IP mass spectrometry count: 5
LARP4 (human)
  co-IP mass spectrometry count: 2
RPL34 (human)
  co-IP mass spectrometry count: 2
RPS6 (human)
  co-IP mass spectrometry count: 20
KPNB1 (human)
  co-IP mass spectrometry count: 7
IPO7 (human)
  co-IP mass spectrometry count: 9
ZRANB2 (human)
  co-IP mass spectrometry count: 3
IFI16 (human)
  co-IP mass spectrometry count: 2
ERP44 (human)
  co-IP mass spectrometry count: 2
UBTF (human)
  co-IP mass spectrometry count: 2
ABCD1 (human)
  co-IP mass spectrometry count: 2
LDHA (human)
  co-IP mass spectrometry count: 4
EEF2 (human)
  co-IP mass spectrometry count: 5
KTN1 (human)
  co-IP mass spectrometry count: 2
TRAFD1 (human)
  co-IP mass spectrometry count: 2

## N-terminal FLAG tagged B3GNT2 (from UniProt Q9NY97 1-397) (enzyme)
DNAJA1 (human)
  co-IP mass spectrometry count: 6
PCBP1 (human)
  co-IP mass spectrometry count: 4
SLC25A4 (human)
  co-IP mass spectrometry count: 9
GCN1 (human)
  co-IP mass spectrometry count: 14
ERLIN1 (human)
  co-IP mass spectrometry count: 11
